Source: article PMC3907554, “Crystal Structure of an (R)-Selective ω-Transaminase from Aspergillus terreus” (PLoS ONE, 2014)

Molecular target: the molecule itself
Assay: crystal structure; X-ray, 1.63 Å, space group C222(1); crystals from Morpheus condition H02 (10% w/v PEG 8000, 20% v/v ethylene glycol, amino acid mix, 0.1 M MES/imidazole pH 6.5), 18°C; two chains in the asymmetric unit

B1: (R)-selective ω-transaminase from Aspergillus terreus (enzyme, UniProt Q0C8G1 1-325, looked up)
chain: MASMDKVFAGYAARQAILESTETTNPFAKGIAWVEGELVPLAEARIPLLDQGFMHSDLTYDVPSVWDGRFFRLDDHITRLEASCTKLRLRLPLPRDQVKQILVEMVAKSGIRDAFVELIVTRGLKGVRGTRPEDIVNNLYMFVQPYVWVMEPDMQRVGGSAVVARTVRRVPPGAIDPTVKNLQWGDLVRGMFEAADRGATYPFLTDGDAHLTEGSGFNIVLVKDGVLYTPDRGVLQGVTRKSVINAAEAFGIEVRVEFVPVELAYRCDEIFMCTTAGGIMPITTLDGMPVNGGQIGPITKKIWDGYWAMHYDAAYSFEIDYNERN
modifications: pyridoxal 5'-phosphate (PLP) covalently bound to Lys180 (internal aldimine), present in part; the other state is free Lys180 with a PLP-amino acid adduct (ligand code PGD)
notes: ω-(R)-transaminase from Aspergillus terreus, gene codon-optimized for E. coli; Cloned through NcoI and XhoI into pET28a(+); also called AT-ωTA; (R)-ω-transaminase; source: E. coli BL21-Gold(DE3), pET28a(+), purified (Ni Sepharose, SEC on Superdex 200); not shown: His-Tag, C-terminal, kept
stoichiometry N: 2
